# No end group written: not given here. fluorescein = fluorescein label on the C-terminus of the peptide; Me3 = trimethyl-lysine
# Assays:
# [1] = target: the histone peptide containing H3K4me3; test: ITC + fluorescence polarisation
# [2] = target: PHF2 (1-451), containing both the PHD and Jumonji domains (human, UniProt O75151 1-451); test: fluorescence polarisation
# PHF2 (1-451), containing both the PHD and Jumonji domains (human, UniProt O75151 1-451), sequence (O75151 1-451): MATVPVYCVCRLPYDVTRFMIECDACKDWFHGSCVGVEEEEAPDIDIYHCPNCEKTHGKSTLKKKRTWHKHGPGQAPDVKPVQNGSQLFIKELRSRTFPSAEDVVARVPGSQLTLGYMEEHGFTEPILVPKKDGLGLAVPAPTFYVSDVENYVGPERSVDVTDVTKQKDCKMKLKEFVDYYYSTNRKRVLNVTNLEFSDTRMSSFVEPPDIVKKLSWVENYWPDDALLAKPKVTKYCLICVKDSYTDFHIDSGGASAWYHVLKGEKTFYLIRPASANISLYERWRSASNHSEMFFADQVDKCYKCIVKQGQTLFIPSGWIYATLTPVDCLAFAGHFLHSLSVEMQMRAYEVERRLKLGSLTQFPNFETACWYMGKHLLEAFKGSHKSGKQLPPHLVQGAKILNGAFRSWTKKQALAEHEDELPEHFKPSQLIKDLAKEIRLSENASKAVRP
# PHF2 (1-451), containing both the PHD and Jumonji domains (from UniProt O75151 1-451) (domain or fragment), sequence (O75151 1-451): as above
Molecule,Kd [1],binding result [2]
"PHF2 (1-451), containing both the PHD and Jumonji domains (from UniProt O75151 1-451) (domain or fragment)",230 to 270 nM,–
"ARTK(Me3)QTARKSTGGKA-fluorescein (peptide, UniProt P68431 2-16, looked up) [H3(1-15)K4me3 peptide, C-terminal fluoresceinated]",–,binds

# — publication PMC3030633 (Journal of molecular biology, 2010)
